{"source": "the DeepSol protein solubility set", "data": [{"assay": "soluble on expression in E. coli; label from the status in PepcDB or PDB records", "values": [{"sequence": "MGSDKIHHHHHHMKFVEIRDLQVTYMGKDKPSIVVDKLDIEEGESVLITGRSGSGKSTLVSVINGVIPHLINAEIKGEVRVFGFDVKSTPIHEISKYVGTLLQDPDTQAFNYTIIDEVAFGVENYMISRDEMIERVEESMKIYGISHLRDREINTLSGGELQRTILASVLAMRPKALILDEPTSNIDPQGTREILELVKTFRSEGISLVLVEHKIERVLPFVDRIIVVEEGKIAVDVRKDEIVDKADFLYSLGLEIPDYMLFLKKNGFRKIDYEYLRKTYTYRPPSRIGGKGEALYASVKVKTKNGIYLINTKISLKQGTITALMGKNGSGKTTLLKVIVGLIDKKRLIVEEEKVIVNGVDLSKTKLVERGKFIAYLPQFFDVMFIKRTVEDEIKFSMKNRGTYDEKRLGEVLKMFSLDAYRKEDPLVLSMGQRRRVAMASVLAGGAKVILMDEPTSGQDWYHRQILGKELLELRDKGYTILVVTHDSRFVDRFADYLLVMNEGKIVLEGKPEEVFIKSLRHGIEPPLEYELGGLIKNEHFS", "soluble on expression in E. coli": "not soluble"}, {"sequence": "MGSDKIHHHHHHMKIDLIISADDIKEEKVKNKTAVVIDMLRATSVITTALNNGCKRVVPVLTVEEALKKVKEYGKDAILGGERKGLKIEGFDFSNSPMEYTEDVVKGKTLIMTTTNGTRAIKGSETARDILIGSVLNGEAVAEKIVELNNDVVIVNAGTYGEFSIDDFICSGYIINCVMDRMKKLELTDAATTAQYVYKTNEDIKGFVKYAKHYKRIMELGLKKDFEYCCKKDIVKLVPQYTNGEIL", "soluble on expression in E. coli": "soluble"}, {"sequence": "MGSDKIHHHHHHMKIFITGATGLIGSNLIPLLLEKEYQITALVRDMEKARHQLPNQVQLVKALSHYENFNDFDGVINLAGAPIFAQYWTAGYKTELINSRLNLTENLTALINNSNKPPHCFISASATGYYGDQGNNLITEKSLSGNQFTAQLCQQWENIALQANSRVCLLRTGMVFSEKGGALTKILPIYRYGVGGKLGTGKQFWAWISLQDMLQAILFLLENAQCEGAFNLVAPKPIQNKDFNCQLGAWLKRPYLATVPKFLLNLLLGERATLLLDSQNVIPQKLLEAGFHFSTPTFSDFLHSIKK", "soluble on expression in E. coli": "not soluble"}, {"sequence": "MGSDKIHHHHHHMKIGVLSQFPELYSTRRLVEACESRGHEAWVINPINCYMNINSVKPSIHLEGEEVPMFDAIIPRIHASVTFYGCAVVRQFEMMGVFAANDSISIARSRDKLRALQLLSRKGIGMPVTGFANKPNNIPDLINMVGGAPLVIKLLEGTQGIGVVLAETRKAAESVIEAFLGLKANIMVQEYIKEANGSDIRCFVVGDKVVAAMRRQGPEGDFRSNLHLGGSAEPVKITPQERKSAVAAAKAMGLVVAGVDILRSARGPLVLEVNSAPGIEGIEQATGIKVAEPIVEYIEKVVAARRANHQVIA", "soluble on expression in E. coli": "not soluble"}, {"sequence": "MGSDKIHHHHHHMKILIDATAALMGGGQTYLINLLNYTEILEHDIIILSPKKLTLPSIQNIHRIDVDKSLENPFIRAVWMRRYLPDLIKERKVDILFCPGGLITKGIPSNCVKVTMFRNMIPFDLKQRVKYPLGYMRFRNWLLERLLLDSMIEADLVIFISEYASKVIKKRAKKKLRNTVIIPHGLSAEFRIFDKKAIPRPQWLPAEDYLLYVSILDVYKAQIELIQGFALLKKWRQTSEKLLLVGPDEERSYYTKMIKKEIVKHGLQNDVIITGPVPYNELPALYYHAKVNIFASECENCPNILLEALGAGRPTLVSDCEPMPEFGGDSVEYFDPTSPEDFANSIIRFIDDENKMKELAKKAGERSLLFDWEKVGRLTWQSIENIYNSKTINM", "soluble on expression in E. coli": "not soluble"}, {"sequence": "MGSDKIHHHHHHMKKASTLPLFERLVQHDRGGPISCHVPGHKQGALFHKDACSYFQSILSLDVTELTGLDDLHDPRGVIAEAQALTARYVGAEATCFLVNGSTVGNLAMILGTLEPGDTVFVQRDSHKSVMNGLAMARVHPIFLSPSYDERTQLPTGITEQTLKQALIEHPNGKALILTYPSYYGVARSIRPLVQMAKEAGLYVLVDEAHGAHFPVGDPFPKQALEQGADVVVQSAHKTLPALTMGSYLHFAHGLHSKIKDSIREQLQILQSSSPSYPILASLDAARGFLEDLTNVKDTLDSIAEMNRRIEQVERLSVATFSPLPTDPLKTVITVEGATGFALQTELEKEGIYSELADDRHVLLMWGLTPLQKVRQEEIIDKMCRATKRLPALEQISKGCPLSLSWQAHTSLDLSYDEQKRYSIEEVAVEEAVGKVSGATVIPYPPGVPLLLKGEKITEPLIAQFQQLQEAGARFQGRPSEQQGLYVFTLEAMT", "soluble on expression in E. coli": "not soluble"}, {"sequence": "MGSDKIHHHHHHMKKIVVLGGGPGGLVAAYNLARLLRGKAEITLIDKTGYHLFPPSLLWVMVGQREPEDIMRPLSKLEKHGIKVVTASVESIDPDNNKVATSGGEFEYDYLVVSLGSTPRPELMKADDTVCSPWTVEGALDCRRKLAGFKSGRIIVGAWSWPYKCPPAPFETAFLVKYLLEQRGGDAQVTVVHFWKKPMEPFGPTMAEAFQSFLDMYGVGFKGGVEPMEARGGRLVASSGEEIEYDLAVFAPPHEPPKPVAESPLGDESLGGYMRVDKRTLRSPRYGNVFGVGDIIAPSLGLGMAGIFAHFQAEYVASQIADEILGTYMGEHYNMSGVCVMDLGYAGAAVYCDFSKKVMGEAEYPDCVILGGMRAFRPLKYAFERYWLEKWFT", "soluble on expression in E. coli": "not soluble"}, {"sequence": "MGSDKIHHHHHHMKKLFMSEYLNYVFQKKVWIVENIYMIKIMQLYYSSYNKKFISHTFFTDAIKNSSFPIFLNYVNNLNDKILYHSQVHGVKHILNVTFFSFLIACNENMSANDMGILLETALYHDIGRDDDMEDSDHGHRGAKKILMHISDNKMDMIIPAVIHAHSLLDEEAYQIFRQYNIEKSQYARYSKILSIIKDADALDRFRLRPNSLNPEYFRIDFSKILISLACVLSKVEWHE", "soluble on expression in E. coli": "not soluble"}, {"sequence": "MGSDKIHHHHHHMKKQNIAGFSKVDDTANPQDFVSYLDAISSLNSIQKYKQQTFTRLEIQAGDRILDVGCGIGDDVRSLAVKVGNAGEVVGIDRSETMVKEAQSRSADLGLPVAYYVGDAEKLEFPDCTFDACRSDRTFQHLLNPRQALTEIVRVTRCGGRVVVSDPDWETLVIDTGDRALTRKILNFHCDSCVNGWIGRQLPTLFQEVGLHKINVDTYTLILTDCTLADKHLGVINAAMKAQQAGLISIAEAANWITNLEAASQAGRFFCAITGFLAFGCKP", "soluble on expression in E. coli": "not soluble"}, {"sequence": "MGSDKIHHHHHHMKKSVMLLVCLLGLSACSTKFSYRFLDWAIGWEQEDYVTLDKTQQKAFDTLVEKMVFWHQSKELAHYVVQLKEVENLIKTNELTPLLWAEHVDIAKRHWFRVFEFAMPELLPIIMSLTDSQVKQILTKLREDEQALVKEFAGKSPEQLQKDADKRLQKQFEDWLGSVSAEQKSLIHQYNQQRLSTLDMWLEYRHEWLRQFEVALGQRADKVLLTERLTLLMTQPDELKSEQHKAFLRQNTEAFGTLLLAMNGSLSAKQSKHFYKKLGKLIQDLTELNQEALEKEFKSMKALST", "soluble on expression in E. coli": "not soluble"}, {"sequence": "MGSDKIHHHHHHMKKTYVLDTNVLLHDPMALFRFEDNDLVIPITVIEEIDRFKKDLNERGRNARQISRLLDGFRSKGHLIEGITLDHGGKLRVVMLEKTFLEQLPSGLIANANDNAILAVALALQQQNGQPTILVTKDTNLRIKADATGLCAEDYESDKIDFSELYSGTAEVYLAPDQLQVFRREGGLDLSGEFFPNQALTLVDETNLSHTLLGRYRASDRRVVPLIQPPKMGISRIHARNREQQFALDLLLDDNIQLVTLVGKAGTGKTLLAVAAGLHKVADERHFSRLLVSRPIFPMGRDLGFLPGDLQEKLAPWMQPIIDNLDFILGGANNNGDRPSNKQQNYQDLMGMNLLQIEPLTYIRGRSIPRQFMIVDEAQNLTPHEIKTILTRAGEGTKIVLTGDAYQIDNPYVDASSNGLTYVVEKFKNEAIAGHITLERGERSPLAELSANLL", "soluble on expression in E. coli": "not soluble"}, {"sequence": "MGSDKIHHHHHHMKKVAIVQSNYIPWKGYFDMIAAVDEFILYDDMQYTRRDWRNRNQIKTPQGVQWLTVPVLVKGKYHQKIRETEIDGTDWAAAHWKALVQNYRRSPHFTEIAAWLEPLYLAETFTHISQLNRRFIEAICNYLGIKTVIKNSWDYTLLDGKTERLADLCVQAGGTEYISGPAAKDYVDEQVFKENGIKLTWFDYIGYPEYQQLWGEFTHGVTILDLLLNCGKNAKRYMKYVE", "soluble on expression in E. coli": "not soluble"}, {"sequence": "MGSDKIHHHHHHMKKYYIYILTAVLPILWGACNNGDDIDTKHSIFSTEPMEHNGFDEWLLANYTYPYNVDFKYRMQDIESDHKYNLVPADYDKSVALAKIIKHVWMEAYTELAGPAFLRSYVPKTFHLIGSPAYDSSGTKVLGTAEGGKKITLYEVNSLDFENVDIEVLNEYYFKTMHHEFAHILHQKRNYDPSFDRITEGKYVGSDWYFYVAENGNSYLREDADAWPEGFVTAYAMSEAREDFVENIAMYVTHDQAYWDNMLKVAGTAGAAIINQKFTIVYNYMLETWGINLDDLREIVLRRQQEIPELDLSTIE", "soluble on expression in E. coli": "not soluble"}, {"sequence": "MGSDKIHHHHHHMKLDPKLAQDIVNKMMTQIPYNVNMMDDQGYIIASGDPQRLNTLHVGAVAAINQQTTLPMHDSYGDHGQPGVNMPIVFNDQIIGVIGITGDPEKVTPLASLLRVATELLLDQNQHNLQEKQYETTLNRFLYHWSQVTQQIDTNTNLLLEAQQLGIDILKPRAAIVLPKQTLPIGLLDATDFQFDLDTTTLIVLTALPATIARFTTYCQTGQHRLGIGLFDRNVGNSVRQARQTLRISQIFQRPDFIHYSQIAFIQALLDGHLHVTDLQQRFQKLASTANGRELIKTLGMFVRLNTNVLQTAAALHIHRNTLSYRLDRLQQIFQLDPHQTLDLFTLYVGYLYFKADK", "soluble on expression in E. coli": "not soluble"}, {"sequence": "MGSDKIHHHHHHMKLFTSCKESVKNSIDTKYFSIAHLHSEEETMSIHIHDCYEIYYSISGENQFLIDNKLYYINPGNLFAVNEFESHYVSQVNNSTHERIVISIHPDFLKSLCTSKTNLTYCFKHRGSNFCHKVSLNKEQQSRFMYFINKIIGSHGFGADMIEYASFIELMIFLTSLFINNGESLTPIYKYSNQIEEIIRYINDNVTNDITVKHLAEHFFLSESYICRIFKLSTGTTINKYITARRISMAKALLSNGSSINDVYVKCGFNDYSNFLKSFKKAVGISPKKYSTFSTS", "soluble on expression in E. coli": "not soluble"}, {"sequence": "MGSDKIHHHHHHMKLISVRRIWEQAAHNAFTDLIAFQEALFCVFREGTAHVSPDGALRILRSVDGGETWQSVALIRSDEADLRDGKLIEYQGELLLLGGGTLHNKSGLQSHLWRSADGRVWSDALKIADKGYWLWRLTEHQNTLYGVGYRPGPDGDTRLYKSEDGVQFKTWLKVFNNQGYVNETAIVFDQDSGFCLLRRDPVWGPEFFGLLGHSRAPFTDWQWQELDKRIGGPVMLMYQSRLLAVVRLYDEQVRTALVEIHSDTGVVQELLTLPSKGDTSYAGVVIDGNELWVSYYSSHELADSQLDTQNSLDESSRAGKAKTMIYFAKILLS", "soluble on expression in E. coli": "not soluble"}, {"sequence": "MGSDKIHHHHHHMKLLDHKLSLLEITDEEKSDEIILNLSRNVKKDLEDIVVANVSMENVLVMNIKVPPTLNKQNAVEYATMEISRNLGILPEQLVVAPLDIRGGEGLFFVSKVDQVKSFVTDLMKKEFPETDVVIPDIVKYLEVFEFYFGKRLKGTSVLTVISFLSDYYSIVVLENNHYRSLRLLFSMFWDYMDIVVENTGIQPKELIEGTVNVDLSFLQPYFGDFLIELDREVKVSLDEVNLSRVNQFFYIVDPPIFSPVLSQSLEKFEGVALKQGIVPSFKPGISLGTLGLMIRGGREIGKVKHLSV", "soluble on expression in E. coli": "not soluble"}, {"sequence": "MGSDKIHHHHHHMKLPRFGVEEWLNVHENSAIYDIAGVSISSLTLEELFALSGTNPEDFYKKLQGTKLNYGWIEGSPAFKKSVSQLYTGVKPEQILQTNGATGANLLVLYSLIEPGDHVISLYPTYQQLYDIPKSLGAEVDLWQIEEENGWLPDLEKLRQLIRPTTKMICINNANNPTGAVMDRTYLEELVEIASEVGAYILSDEVYRSFSELDVPSIIEVYDKGIAVNSLSKTYSLPGIRIGWVAANHQVTDILRDYRDYTMICAGVFDDLVAQLALAHYQEILERNRHILEENLAILDQWIEEEPLVSYIRPAVVSTSFVKIAVDMPMEDFCLQLLQEHGVLLVPGNRFERDGYVRLGFACEQETLIKGLEKLSQFLRRFDKEN", "soluble on expression in E. coli": "not soluble"}]}]}
